Experimental data published in PMC10673952, “Stochastic chain termination in bacterial pilus assembly” (Nature Communications, 2023).

T1: FimI-FimAtHis (the two subunits of the ternary FimCHisIA complex) (E. coli W3110 | E. coli, UniProt P39264 20-179; P04128 37-182)
T1 construct: also called FimI-FimA part of FimCHisIA
T1 sequence (looked up) 1: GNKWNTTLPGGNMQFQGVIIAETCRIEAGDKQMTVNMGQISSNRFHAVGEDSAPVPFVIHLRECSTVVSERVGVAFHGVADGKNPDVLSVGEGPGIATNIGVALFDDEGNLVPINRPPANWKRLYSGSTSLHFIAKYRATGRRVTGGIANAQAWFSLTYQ
T1 sequence (looked up) 2: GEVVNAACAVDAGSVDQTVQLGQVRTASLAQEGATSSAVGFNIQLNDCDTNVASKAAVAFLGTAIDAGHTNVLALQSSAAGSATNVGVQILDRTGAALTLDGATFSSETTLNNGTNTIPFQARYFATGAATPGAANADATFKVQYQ

T2: FimF-FimGt (the two subunits of the ternary FimCHisFG complex) (E. coli, UniProt P08189 21-176; P08190 24-167)
T2 chain 1: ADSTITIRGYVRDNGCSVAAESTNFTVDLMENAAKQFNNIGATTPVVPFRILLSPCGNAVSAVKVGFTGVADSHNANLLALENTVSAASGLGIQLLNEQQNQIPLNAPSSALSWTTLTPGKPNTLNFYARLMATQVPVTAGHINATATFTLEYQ
T2 chain 2: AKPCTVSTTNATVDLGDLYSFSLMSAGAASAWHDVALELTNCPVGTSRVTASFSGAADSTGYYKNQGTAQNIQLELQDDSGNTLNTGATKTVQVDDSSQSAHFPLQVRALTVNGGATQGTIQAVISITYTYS

T3: FimFt (E. coli)
T3 chain: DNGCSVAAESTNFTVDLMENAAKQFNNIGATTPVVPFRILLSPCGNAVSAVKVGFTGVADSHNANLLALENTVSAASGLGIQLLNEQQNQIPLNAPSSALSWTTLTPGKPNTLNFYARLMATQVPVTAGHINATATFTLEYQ

B1: FimI (natural protein, E. coli W3110, UniProt P39264 20-179, looked up)
chain: T1 sequence (looked up) 1
notes: also called assembly terminator subunit FimI
B2: FimC (natural protein, E. coli, UniProt P31697 37-241, looked up)
chain: GVALGATRVIYPAGQKQEQLAVTNNDENSTYLIQSWVENADGVKDGRFIVTPPLFAMKGKKENTLRILDATNNQLPQDRESLFWMNVKAIPSMDKSKLTENTLQLAIISRIKLYYRPAKLALPPDQAAEKLRFRRSANSLTLINPTPYYLTVTELNAGTRVLENALVPPMGESTVKLPSDAGSNITYRTINDYGALTPKMTGVME
notes: also called periplasmic chaperone FimC; untagged FimC; source: in FimCF and FimCG co-expressed in the periplasm of E. coli HM125
B3: FimCHis (FimC with C-terminal hexahistidine tag) (natural protein, E. coli, UniProt P31697 37-241, looked up)
chain: B2 chain
B4: FimAtHis (wild-type FimA missing residues 1-13 but with an N-terminal hexahistidine tag) (domain or fragment, E. coli, UniProt P04128 37-182, looked up)
chain: T1 sequence (looked up) 2
notes: also called FimAt (in the FimCHisIA structure)
B5: FimAt (residues 18-159 of FimA) (domain or fragment, E. coli, UniProt P04128 41-182, looked up)
chain: NAACAVDAGSVDQTVQLGQVRTASLAQEGATSSAVGFNIQLNDCDTNVASKAAVAFLGTAIDAGHTNVLALQSSAAGSATNVGVQILDRTGAALTLDGATFSSETTLNNGTNTIPFQARYFATGAATPGAANADATFKVQYQ
B6: FimA (natural protein, E. coli, UniProt P04128 24-182, looked up)
chain: AATTVNGGTVHFKGEVVNAACAVDAGSVDQTVQLGQVRTASLAQEGATSSAVGFNIQLNDCDTNVASKAAVAFLGTAIDAGHTNVLALQSSAAGSATNVGVQILDRTGAALTLDGATFSSETTLNNGTNTIPFQARYFATGAATPGAANADATFKVQYQ
notes: also called main structural pilus subunit FimA; FimA wild-type

Assays:
[1] = target: B3; assay: crystal structure; details: both partners purified
[2] = target: B2; assay: refolding of the subunit with the chaperone and co-purification (cation exchange chromatography, SEC); denatured, disulfide-intact subunit diluted into buffer with an excess of FimC or FimCHis; complex purified by cation exchange and (not for FimCHisI) Superdex 75; FimCA eluted as a 1:1 complex; identity by ESI-MS; details: both partners purified
[3] = target: B6; assay: chaperone exchange kinetics followed by analytical cation exchange chromatography; 4 μM complex incubated with a 9-fold molar excess (36 μM) of the differently tagged FimC (untagged FimC against FimCHis complexes, FimCHis against FimCA and FimCAA); 20 mM MES-NaOH pH 6.0, 37 °C; single-exponential fit; details: both partners purified
[4] = target: B6; assay: cell-based or functional assay
[5] = target: B1; assay: cell-based or functional assay
[6] = target: T1, FimI-FimAtHis (the two subunits of the …); assay: chaperone exchange kinetics followed by analytical cation exchange chromatography; 4 μM complex incubated with a 9-fold molar excess (36 μM) of the differently tagged FimC (untagged FimC against FimCHis complexes, FimCHis against FimCA and FimCAA); 20 mM MES-NaOH pH 6.0, 37 °C; single-exponential fit; details: both partners purified
[7] = target: T2, FimF-FimGt (the two subunits of the …); assay: as above; details: both partners purified
[8] = target: B1; assay: as above; details: both partners purified
[9] = target: T3, FimFt; assay: as above; details: both partners purified
[10] = target: B1; assay: crystal structure; details: both partners purified
[11] = target: B3; assay: crystal structure; FimCHis-FimI-FimAtHis complex, 2.8 Å, space group P6(1), two complexes in the asymmetric unit, crystals at 293 K from 0.8 M sodium formate, 100 mM Tris/acetic acid pH 8.5, 16% PEG 4000; details: both partners purified
[12] = target: B6; assay: reconstitution by donor strand exchange and co-purification (cation exchange chromatography, SEC); 2 μM FimCA with 10 μM FimCAt at pH 7.0 and 37 °C overnight; FimCAA purified on Resource S and Superdex 75; identity by ESI-MS; details: both partners purified

Binder: B1
binding result [1]: binds
binding result [2]: binds

Binder: B2
dissociation half-life [3]: 26 ± 1 s
FimC-catalyzed folding of oxidized, unfolded FimA, rate constant by stopped-flow tryptophan fluorescence (pseudo-first-order fit, pH 8.0) [4]: 43000 M^−1 s^−1
FimC-catalyzed folding of oxidized, unfolded FimI, rate constant by stopped-flow tryptophan fluorescence (pseudo-first-order fit, pH 8.0) [5]: 73000 M^−1 s^−1

Binder: B3
dissociation half-life [6]: 3.85 ± 0.43 h
dissociation half-life [7]: 1.41 ± 0.12 h
dissociation half-life [8]: 1.05 ± 0.095 min
dissociation half-life [9]: 1.58 ± 0.14 h

Binder: B4
binding result [10]: binds
binding result [11]: binds

Binder: B5
binding result [12]: binds
binding result [2]: binds

Binder: B6
binding result [2]: binds
